In the assay the target is endogenous Xenopus type 1 inositol 1,4,5-trisphosphate receptor (Xenopus laevis (endogenous in oocytes)) (UniProt Q91908). Description: co-IP.

Sequence of recombinant rat type 3 inositol 1,4,5-trisphosphate receptor, Q63269 1-2670 (Q63269 whole entry): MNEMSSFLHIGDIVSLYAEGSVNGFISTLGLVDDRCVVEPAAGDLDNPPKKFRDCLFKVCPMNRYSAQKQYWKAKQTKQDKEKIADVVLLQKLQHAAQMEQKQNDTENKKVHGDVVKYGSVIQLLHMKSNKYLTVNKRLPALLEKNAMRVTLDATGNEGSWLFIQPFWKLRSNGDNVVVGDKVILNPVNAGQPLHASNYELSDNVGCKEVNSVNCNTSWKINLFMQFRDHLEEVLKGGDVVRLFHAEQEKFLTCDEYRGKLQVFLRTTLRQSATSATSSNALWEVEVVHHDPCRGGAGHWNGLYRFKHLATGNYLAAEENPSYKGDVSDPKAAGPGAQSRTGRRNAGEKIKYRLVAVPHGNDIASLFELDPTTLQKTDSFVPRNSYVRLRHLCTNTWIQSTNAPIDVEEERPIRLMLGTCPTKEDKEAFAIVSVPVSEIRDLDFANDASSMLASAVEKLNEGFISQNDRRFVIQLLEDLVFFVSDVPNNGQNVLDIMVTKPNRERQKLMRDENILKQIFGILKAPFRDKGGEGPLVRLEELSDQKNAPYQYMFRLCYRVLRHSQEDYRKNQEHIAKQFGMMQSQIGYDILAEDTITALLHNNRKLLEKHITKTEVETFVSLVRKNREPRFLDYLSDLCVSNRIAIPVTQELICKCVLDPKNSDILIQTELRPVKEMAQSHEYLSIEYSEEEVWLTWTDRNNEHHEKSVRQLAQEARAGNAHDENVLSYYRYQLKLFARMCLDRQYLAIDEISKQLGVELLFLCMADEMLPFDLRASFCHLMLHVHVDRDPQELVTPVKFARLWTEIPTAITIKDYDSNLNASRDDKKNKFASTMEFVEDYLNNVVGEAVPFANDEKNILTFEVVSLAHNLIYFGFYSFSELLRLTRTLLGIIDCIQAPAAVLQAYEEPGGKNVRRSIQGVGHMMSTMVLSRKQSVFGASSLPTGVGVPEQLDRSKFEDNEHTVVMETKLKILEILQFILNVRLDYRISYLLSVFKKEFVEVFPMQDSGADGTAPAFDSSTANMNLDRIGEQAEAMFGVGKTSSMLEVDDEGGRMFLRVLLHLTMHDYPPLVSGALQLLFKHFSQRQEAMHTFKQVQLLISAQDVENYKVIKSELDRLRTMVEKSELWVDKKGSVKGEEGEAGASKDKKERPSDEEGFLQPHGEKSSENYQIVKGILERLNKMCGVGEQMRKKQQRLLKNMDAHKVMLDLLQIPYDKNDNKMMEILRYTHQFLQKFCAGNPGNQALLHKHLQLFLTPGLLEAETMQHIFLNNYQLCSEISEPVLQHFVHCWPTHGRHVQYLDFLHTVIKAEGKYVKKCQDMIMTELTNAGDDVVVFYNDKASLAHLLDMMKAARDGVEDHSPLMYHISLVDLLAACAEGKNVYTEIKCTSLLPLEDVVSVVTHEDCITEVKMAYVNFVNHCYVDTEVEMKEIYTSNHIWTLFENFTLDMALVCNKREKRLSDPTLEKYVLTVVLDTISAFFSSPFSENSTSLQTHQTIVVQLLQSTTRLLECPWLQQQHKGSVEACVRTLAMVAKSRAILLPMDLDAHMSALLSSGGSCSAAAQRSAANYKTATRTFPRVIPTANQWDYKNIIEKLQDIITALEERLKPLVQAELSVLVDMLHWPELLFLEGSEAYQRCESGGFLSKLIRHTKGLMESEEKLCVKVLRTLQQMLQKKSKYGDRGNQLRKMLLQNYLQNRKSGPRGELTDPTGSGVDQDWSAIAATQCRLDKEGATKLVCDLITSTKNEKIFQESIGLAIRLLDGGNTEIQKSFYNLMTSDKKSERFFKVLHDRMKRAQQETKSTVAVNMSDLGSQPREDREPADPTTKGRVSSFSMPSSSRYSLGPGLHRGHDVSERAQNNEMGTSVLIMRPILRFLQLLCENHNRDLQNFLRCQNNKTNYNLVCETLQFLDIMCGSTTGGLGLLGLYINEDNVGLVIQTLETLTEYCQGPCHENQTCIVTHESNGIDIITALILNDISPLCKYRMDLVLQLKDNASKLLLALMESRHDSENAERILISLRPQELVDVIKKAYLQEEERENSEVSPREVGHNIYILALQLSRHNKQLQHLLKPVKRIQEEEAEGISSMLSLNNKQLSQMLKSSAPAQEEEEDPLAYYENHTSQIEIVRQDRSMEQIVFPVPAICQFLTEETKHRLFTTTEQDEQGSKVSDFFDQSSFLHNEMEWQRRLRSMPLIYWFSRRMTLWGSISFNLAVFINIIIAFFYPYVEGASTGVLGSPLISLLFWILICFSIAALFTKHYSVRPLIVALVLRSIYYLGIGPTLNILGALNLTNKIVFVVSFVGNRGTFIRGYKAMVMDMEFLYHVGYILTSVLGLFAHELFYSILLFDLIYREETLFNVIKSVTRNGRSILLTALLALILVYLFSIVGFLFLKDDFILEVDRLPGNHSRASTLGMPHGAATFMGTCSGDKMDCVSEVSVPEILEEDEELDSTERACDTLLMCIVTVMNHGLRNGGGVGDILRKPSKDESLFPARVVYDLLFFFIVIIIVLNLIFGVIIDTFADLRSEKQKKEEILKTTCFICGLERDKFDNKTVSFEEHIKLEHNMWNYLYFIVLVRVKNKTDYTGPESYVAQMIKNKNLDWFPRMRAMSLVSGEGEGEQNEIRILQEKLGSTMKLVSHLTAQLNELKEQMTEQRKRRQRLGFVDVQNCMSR

Substance “recombinant rat type 3 inositol 1,4,5-trisphosphate receptor, Q63269 1-2670” displayed a percent of expressed r-InsP3R-3 in heteroligomers with X-InsP3R-1 of 7 to 10%.

The values are drawn from publication PMC2217211.
